From the supplement of paper PMC9170038

System: MS2 coat protein
Assay: apparent KD of MS2 coat protein; designed switch direction (-1 OFF switch, 1 ON switch): -1; higher = weaker reporter binding
Summary of the method: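 Designed RNA switches sharing common flanks were transcribed on Illumina chips by stalled E. coli RNA polymerase. They were titrated with SNAP-549-labelled MS2 coat protein, from 0.7 or 1.5 nM doubling to 3 µM, in Tris-HCl pH 7.5 buffer with KCl, MgCl2, BSA, DTT, tRNA and Tween-20. Titrations ran without input, with 200 uM small-molecule ligand, or with an oligonucleotide input. The apparent KD of each design is the median over its clusters, after curve-fitting of normalised cluster fluorescence.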

[1] = input ligand: microRNA oligo, concentration not stated
[2] = Eterna round: R95, input ligand: microRNA oligo, concentration not stated
[3] = Eterna round: R95, input ligand: FMN 200 uM
[4] = Eterna round: R95, input ligand: none

Sequence	apparent KD of MS2 coat protein (input ligand: FMN 200 uM) [nM]	apparent KD of MS2 coat protein [1] [nM]	apparent KD of MS2 coat protein (input ligand: none) [nM]	apparent KD of MS2 coat protein [2] [nM]	apparent KD of MS2 coat protein [3] [nM]	apparent KD of MS2 coat protein [4] [nM]
GCACGGAGUGUAGGAUAUCUGUGCGAUUAGCUCAGAGAAGGACACAUGAGGAUCACCCAUGUGUAACUCAAUACUCAUCCGUGC [Eli exng1 - 070] (Eterna round: R96, puzzle: Exclusion NG 1)	8.06	9.18	13.9			
GCACGGAGUGUAGGAUAUCUGUGCGAUUAGCUCAGAGAAGGACACAUGAGGAUCACCCAUGUGUAUCAACACAAUAAUCCGUGC [Eli exng1 - 071] (Eterna round: R96, puzzle: Exclusion NG 1)	14.8	13.1	14.5			
GCACGGAGUGUAGGAUAUUAGUGCGAUUAGCACUGAGAAGGACAUGAGGAUCACCCAUGUGCUACCUCAAUUAGCCUUCCGUGC [Eli exng1 - 035] (Eterna round: R96, puzzle: Exclusion NG 1)	21.8	16.5	19.7			
GCACGGAGUGUAGGAUAUUAGUGCGAUUAGCACUGAGAAGGACAUGAGGAUCACCCAUGUUCCUCAAUAACUCACCUUCCGUGC [Eli exng1 - 043] (Eterna round: R96, puzzle: Exclusion NG 1)	9.73	10.6	11.5			
GCACGGUGAGGAUAUAUAAAUGGGCAUGUCGAGAACCGUUCACAUGAGGAUCACCCAUGUAGAAGGCGCCUGUG [Eternabot (L2) Solution 58] (Eterna round: R97, puzzle: Exclusion 2)	115		49			
GCACGGUUGGUAGGAUAUCAUUGCGAUUAGCUAUGAGAAGGACCACAUGAGGAUCACCCAUGUCCUCUAAUUAGCCUGCCGUGC [Eli exng1 - 014] (Eterna round: R96, puzzle: Exclusion NG 1)		118				
GCAGAUCACGUGAGGAUAUCGUCUACCUCGGUAGUCGAGAAGGCACAUGAGGAUCACCCAUGUGAGUGAUCUGC [Omei Ex4B B2] (Eterna round: R97, puzzle: Brourd's mod of Exclusion 4)	13.6		17.6			
GCAGCAAUCUCAAUUAAAACCACAUGAGGAUCACCCAUGUCUCAGGAUAUGGUCUGGAUUACAGGCCAGAAGGGAGAAAGCUGC [Eli exng3 - 053] (Eterna round: R96, puzzle: Exclusion NG 3)	13.5	10.2	13			
GCAGCACAUGUAGGAUAUCUGCACGUGUAGUGCAGAGAAGGACAUGAGGAUCACCCAUGUAAUUAAGAUCAAUUAUUAAGCUGC [ENG1/3-C3] (Eterna round: R96, puzzle: Exclusion NG 1)	519	42.4	49.1			
GCAGCAUAGAUGAAAAUCUGAUACAUGAGGAUCACCCAUGUACAGGAUAUGGUCUGGAUUACAGGCCAGAAGGGUACAAGCUGC [Eli exng3 - 012] (Eterna round: R96, puzzle: Exclusion NG 3)	15.7	10.4	12.1			
GCAGCAUAGUCCAAAUAGGACAUACAUGAGGAUCACCCAUGUCAGGAUAUGGUCUGGAUUACAGGCCAGAAGGGACAAAGCUGC [Eli exng3 - 001] (Eterna round: R96, puzzle: Exclusion NG 3)	30.4	22.3	27.9			
GCAGCGUAUGUAGGAUAUCGGUCAGUUUCUGAUCGAGAAGGACAUGAGGAUCACCCAUGUUAAGUCAUGCGUGAGCAUGGCUGC [JL ENG1 3.72] (Eterna round: R96, puzzle: Exclusion NG 1)	317	23.8	31.4			
GCAGCUAAUGCAGGAUAUCAGCACGAUUAGUGCUGAGAAGGGCACAUGAGGAUCACCCAUGUGAUCAAUUAAUAUUAAUGCUGC [ENG1/11-B1] (Eterna round: R96, puzzle: Exclusion NG 1)	184	24	25.1			
GCAGCUAGUUCAGGAUAUCAGCACGUGUAGUGCUGAGAAGGGAACAUGAGGAUCACCCAUGUGAUCAAUGCUGCAAUUUUAAUU [ENG1/12-A3] (Eterna round: R96, puzzle: Exclusion NG 1)	780	461	2260			
GCAGGAUAAGUGAGGAUAUACCUAUGGAUACAUAGGUAGAAGGUACAUGAGGAUCACCCAUGUUCCUCACCUGC [Fiskers BMX 4 - 64] (puzzle: Brourd's mod of Exclusion 4)				10.1		
GCAGGAUAAGUGAGGAUAUACCUCUGGAUACAGAGGUAGAAGGCACAUGAGGAUCACCCAUGUCUAUCACCUGC [Fiskers BMX 4 - 78] (puzzle: Brourd's mod of Exclusion 4)				14.5		
GCAGGCGUCUUGGCUCGUCUUAUUUGGAGAGGAUUGAUAACAUGAGGAUCACCCAUGUGUGUGGGAGAGUUGCAGUG [JR_SV3TOV2_Sub017] (puzzle: Sensor v3, turn-off variant 2)				203	293	374
GCAGGUUAAGUCAGGAUAUACCUAUGGAUACAUAGGUAGAAGGGACAUGAGGAUCACCCAUGUUUCUCAUCUGC [Mod of Eli 2 - Jieux - Brourd's mod of Exclusion 4] (Eterna round: R97, puzzle: Brourd's mod of Exclusion 4)	61.5		21.7			
GCAGUAUGAGUUAGGAUAUGAUGAUUUAAAAUAAAUCAGAAGGAACUUGAGGAUCACCCAAGUAAAGAAUUGGU [JR_BMEx4_Sub071] (Eterna round: R97, puzzle: Brourd's mod of Exclusion 4)	25.3		22.1			
GCAGUGCGAGGAUAUACAUGAGGAUCACCCAUGUGAGAGAAAUAAGUGAGGAAGAAAAGUAGAAGGCGCGUUGG [Mat - Exclusion 3 - Mod of Salish D69] (puzzle: Exclusion 3)				40.8	95.2	69.1
GCAUCCAAUGUGAGGAUAUACCUCUGGAUACAUAGGUAGAAGGCACAUGAGGAUCACCCAUGUUCCAAGGAUGC [Fiskers BMX 4 - 30] (puzzle: Brourd's mod of Exclusion 4)				65	183	82
